± gives the standard deviation of the averaged measurements.
Legend:
Saccharomyces cerevisiae [1] = test: protein stability index of tFT-peptide fusion (C-terminal peptide) (PSI (0-1 scale)); higher = more stable (slower turnover)
Protocol: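 MPS profiling in S. cerevisiae of the tFT-X12 degron library: putative degron peptides plus stable controls, 12 aa, fused to the C-terminus of a sfGFP-mCherry timer. Cells are FACS-sorted into 8 mCherry/sfGFP bins and deep-sequenced. PSI runs from 0 (unstable) to 1 (stable). Backgrounds are wild type, das1Δ and doa10Δ at 30 °C, and wild type, das1Δ, cdc34-1 and cdc53-1 at 37 °C; 2-3 technical replicates each.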

Saccharomyces cerevisiae [2] = test: as above; conditions: genetic background: wild type; temperature: 30 C
[3] = genetic background: cdc34-1, temperature: 37 C
[4] = genetic background: cdc53-1, temperature: 37 C
[5] = genetic background: das1 deletion, temperature: 30 C
[6] = genetic background: das1 deletion, temperature: 37 C
[7] = genetic background: doa10 deletion, temperature: 30 C
[8] = genetic background: wild type, temperature: 30 C
[9] = genetic background: wild type, temperature: 37 C
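Further: PSI is a weighted mean of sequencing reads over stability bins, variants kept only with over 10 reads, mCherry proximal and sfGFP distal, peptide attached via GGGS linker.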

Sequence | protein stability index (Saccharomyces cerevisiae [1]; [3]) | protein stability index (Saccharomyces cerevisiae [1]; [4]) | protein stability index (Saccharomyces cerevisiae [1]; [5]) | protein stability index (Saccharomyces cerevisiae [1]; [6]) | protein stability index (Saccharomyces cerevisiae [1]; [7]) | protein stability index (Saccharomyces cerevisiae [1]; [8]) | protein stability index (Saccharomyces cerevisiae [1]; [9]) | protein stability index (Saccharomyces cerevisiae [2])
PHGASLCVPPSP | 0.675 ± 0.025 | 0.739 ± 0.0082 | 0.647 ± 0.0089 | 0.7271 ± 0.0072 | 0.645 ± 0.02 | 0.651 ± 0.014 | 0.69931 ± 2.1e-06 | 0.491 ± 0.0074
PHGLKPHCPTPS | 0.685 ± 0.026 | 0.745 ± 0.021 | 0.654 ± 0.016 | 0.7368 ± 0.0034 | 0.674 ± 0.046 | 0.677 ± 0.01 | 0.73 ± 0.042 | 0.728 ± 0.02
PLRVFFLVAFCL | 0.451 ± 0.009 | 0.4799 ± 0.0037 | 0.372 ± 0.024 | 0.535 ± 0.015 | 0.318 ± 0.026 | 0.326 ± 0.05 | 0.471 ± 0.013 | 0.383 ± 0.0073
PLSNLCRVLTFI | 0.557 ± 0.078 | 0.639 ± 0.0012 | 0.575 ± 0.03 | 0.6394 ± 0.0024 | 0.361 ± 0.0071 | 0.369 ± 0.015 | 0.526 ± 0.0056 | 0.4608 ± 0.0029
PLSSHIPVHEAR | 0.659 ± 0.052 | 0.744 ± 0.035 | 0.699 ± 0.017 | 0.706 ± 0.011 | 0.674 ± 0.012 | 0.645 ± 0.025 | 0.6878 ± 0.0027 | 0.718 ± 0.025
PPLTRVPLSISA | 0.434 ± 0.0084 | 0.465 ± 0.016 | 0.292 ± 0.04 | 0.492 ± 0.012 | 0.267 ± 0.0075 | 0.305 ± 0.034 | 0.46 ± 0.005 | 0.413 ± 0.052
PPPPLATTSAPL | 0.687 ± 0.046 | 0.74266 ± 0.0006 | 0.661 ± 0.0092 | 0.7118 ± 0.0031 | 0.668 ± 0.029 | 0.665 ± 0.015 | 0.6919 ± 0.0013 | 0.719 ± 0.04
PPSLFLLLKVFF | 0.321 ± 0.0034 | 0.362 ± 0.012 | 0.279 ± 0.037 | 0.458 ± 0.005 | 0.268 ± 0.0069 | 0.223 ± 0.023 | 0.357 ± 0.0065 | 0.3254 ± 0.0024
PPSPPPLSASVP | 0.661 ± 0.04 | 0.698 ± 0.025 | 0.667 ± 0.053 | 0.698 ± 0.02 | 0.677 ± 0.024 | 0.669 ± 0.015 | 0.7 ± 0.0078 | 0.578 ± 0.14
PRHLTPPPAPSA | 0.704 ± 0.059 | 0.721 ± 0.024 | 0.675 ± 0.022 | 0.708 ± 0.013 | 0.66 ± 0.038 | 0.659 ± 0.022 | 0.6742 ± 0.0042 | 0.642 ± 0.24
PRHVLWLRRLLF | 0.68 ± 0.052 | 0.7289 ± 0.0067 | 0.622 ± 0.02 | 0.782 ± 0.029 | 0.2 ± 0.016 | 0.235 ± 0.024 | 0.5371 ± 0.0031 | 0.334 ± 0.0067
PRLRPQTVAFLS | 0.68 ± 0.038 | 0.732 ± 0.013 | 0.651 ± 0.011 | 0.721 ± 0.013 | 0.28 ± 0.02 | 0.313 ± 0.016 | 0.5179 ± 0.001 | 0.2648 ± 0.0012
PVGLMKRFRLFI | 0.698 ± 0.088 | 0.727 ± 0.02 | 0.615 ± 0.031 | 0.716 ± 0.023 | 0.332 ± 0.012 | 0.364 ± 0.031 | 0.626 ± 0.018 | 0.455 ± 0.058
PVPPSLLHRPPF | 0.679 ± 0.056 | 0.736 ± 0.045 | 0.682 ± 0.014 | 0.722 ± 0.018 | 0.677 ± 0.011 | 0.673 ± 0.021 | 0.727 ± 0.027 | 0.33 ± 0.014
PWAHIRTVQTYV | 0.673 ± 0.0069 | 0.716 ± 0.013 | 0.595 ± 0.011 | 0.7626 ± 0.0066 | 0.286 ± 0.0081 | 0.314 ± 0.033 | 0.461 ± 0.027 | 0.437 ± 0.0069
PWFSWLLYSFLF | 0.546 ± 0.024 | 0.529 ± 0.031 | 0.526 ± 0.013 | 0.651 ± 0.029 | 0.535 ± 0.016 | 0.458 ± 0.026 | 0.551 ± 0.011 | 0.501 ± 0.0028
PYSLYASSSSPL | 0.696 ± 0.045 | 0.7492 ± 0.0029 | 0.68 ± 0.023 | 0.748 ± 0.019 | 0.6716 ± 0.0016 | 0.676 ± 0.017 | 0.716 ± 0.015 | 0.727 ± 0.024
QCSVRLKEIQFS | 0.664 ± 0.032 | 0.726 ± 0.011 | 0.673 ± 0.03 | 0.72 ± 0.028 | 0.209 ± 0.023 | 0.276 ± 0.0056 | 0.481 ± 0.045 | 0.346 ± 0.1
QERKILGRIKQA | 0.51 ± 0.078 | 0.6853 ± 0.00099 | 0.651 ± 0.05 | 0.7081 ± 0.0052 | 0.0853 ± 0.0029 | 0.0987 ± 0.035 | 0.161 ± 0.026 | 0.265 ± 0.12
QITIYPIPLARF | 0.951 ± 0.015 | 0.937 ± 0.0099 | 0.807 ± 0.015 | 0.88 ± 0.0098 | 0.808 ± 0.027 | 0.867 ± 0.015 | 0.8924 ± 0.0076 | 0.79 ± 0.065

Sequence | protein stability index (Saccharomyces cerevisiae [1]; [3]) | protein stability index (Saccharomyces cerevisiae [1]; [4]) | protein stability index (Saccharomyces cerevisiae [1]; [5]) | protein stability index (Saccharomyces cerevisiae [1]; [6]) | protein stability index (Saccharomyces cerevisiae [1]; [7]) | protein stability index (Saccharomyces cerevisiae [1]; [8]) | protein stability index (Saccharomyces cerevisiae [1]; [9]) | protein stability index (Saccharomyces cerevisiae [2])
QPSSFDMLGLLL | 0.6791 ± 0.0055 | 0.738 ± 0.019 | 0.654 ± 0.0092 | 0.752 ± 0.023 | 0.671 ± 0.053 | 0.663 ± 0.02 | 0.709 ± 0.0089 | 0.742 ± 0.049
RFKEKVSIIHKQ | 0.6446 ± 0.0022 | 0.665 ± 0.061 | 0.693 ± 0.04 | 0.74 ± 0.017 | 0.11 ± 0.0081 | 0.106 ± 0.046 | 0.12487 ± 0.0001 | 0.207 ± 0.054
RGYATTALHWVS | 0.668 ± 0.038 | 0.7695 ± 0.0075 | 0.6757 ± 0.002 | 0.7395 ± 0.0034 | 0.362 ± 0.0075 | 0.4 ± 0.022 | 0.596 ± 0.015 | 0.486 ± 0.019
RHRGHVRLALLN | 0.7 ± 0.079 | 0.845 ± 0.041 | 0.772 ± 0.013 | 0.791 ± 0.061 | 0.233 ± 0.025 | 0.26 ± 0.029 | 0.381 ± 0.017 | 0.396 ± 0.0095
RICCLFILLFCL | 0.439 ± 0.043 | 0.464 ± 0.024 | 0.396 ± 0.03 | 0.477 ± 0.0084 | 0.422 ± 0.0089 | 0.365 ± 0.028 | 0.412 ± 0.019 | 0.423 ± 0.057
RIEGTLTARTAF | 0.736 ± 0.069 | 0.7639 ± 0.0033 | 0.635 ± 0.033 | 0.744 ± 0.013 | 0.65 ± 0.01 | 0.66 ± 0.0097 | 0.709 ± 0.00092 | 0.579 ± 0.18
RITGCWKTYKMQ | 0.6341 ± 0.00082 | 0.721 ± 0.0019 | 0.615 ± 0.0094 | 0.758 ± 0.055 | 0.14145 ± 6.9e-05 | 0.164 ± 0.026 | 0.342 ± 0.073 | 0.308 ± 0.055
RKNIKISKAGIG | 0.283 ± 0.0034 | 0.394 ± 0.0056 | 0.343 ± 0.012 | 0.377 ± 0.012 | 0.31 ± 0.0041 | 0.287 ± 0.021 | 0.332 ± 0.0074 | 0.279 ± 0.1
RKRTILVIIVVK | 0.181 ± 0.031 | 0.33 ± 0.042 | 0.234 ± 0.045 | 0.461 ± 0.05 | 0.186 ± 0.011 | 0.217 ± 0.046 | 0.395 ± 0.052 | 0.338 ± 0.061
RKVWSLCWFVHL | 0.49 ± 0.071 | 0.617 ± 0.012 | 0.512 ± 0.012 | 0.65 ± 0.008 | 0.0695 ± 0.0078 | 0.0716 ± 0.015 | 0.0795 ± 0.0077 | 0.116 ± 0.0023
RLGRYSIIHCLA | 0.295 ± 0.023 | 0.459 ± 0.044 | 0.327 ± 0.029 | 0.52 ± 0.021 | 0.0877 ± 0.015 | 0.102 ± 0.028 | 0.0944 ± 0.058 | 0.15 ± 0.0068
RLHCFSPILCPI | 0.6063 ± 0.0042 | 0.576 ± 0.0073 | 0.434 ± 0.029 | 0.59601 ± 0.00033 | 0.402 ± 0.021 | 0.436 ± 0.017 | 0.579 ± 0.036 | 0.493 ± 0.012
RLIARFKILRCI | 0.259 ± 0.012 | 0.588 ± 0.011 | 0.559 ± 0.012 | 0.635 ± 0.0085 | 0.0618 ± 0.0034 | 0.0662 ± 0.0038 | 0.0702 ± 0.0014 | 0.0979 ± 0.064
RLINCIYVLMLP | 0.567 ± 0.042 | 0.569 ± 0.0072 | 0.412 ± 0.029 | 0.606 ± 0.0037 | 0.261 ± 0.015 | 0.274 ± 0.033 | 0.513 ± 0.024 | 0.398 ± 0.029
RLLRGDRMVICS | 0.5515 ± 0.0014 | 0.565 ± 0.057 | 0.395 ± 0.039 | 0.615 ± 0.0066 | 0.3601 ± 0.0008 | 0.375 ± 0.022 | 0.582 ± 0.0066 | 0.433 ± 0.017
RLMLSWLALRRC | 0.617 ± 0.058 | 0.665 ± 0.015 | 0.601 ± 0.036 | 0.689 ± 0.02 | 0.351 ± 0.026 | 0.344 ± 0.068 | 0.575 ± 0.0095 | 0.476 ± 0.0067
RLPYSLTFFLLC | 0.414 ± 0.0067 | 0.5789 ± 0.0027 | 0.484 ± 0.038 | 0.576 ± 0.0034 | 0.07289 ± 0.00032 | 0.0628 ± 0.018 | 0.0714 ± 0.0077 | 0.134 ± 0.009
RLVCPFYIACVW | 0.623 ± 0.012 | 0.649 ± 0.01 | 0.509 ± 0.016 | 0.588 ± 0.014 | 0.468 ± 0.015 | 0.488 ± 0.022 | 0.567 ± 0.031 | 0.516 ± 0.027
RNCSFRRIQLAM | 0.651 ± 0.063 | 0.699 ± 0.032 | 0.594 ± 0.0073 | 0.715 ± 0.0059 | 0.162 ± 0.0031 | 0.19 ± 0.022 | 0.298 ± 0.0095 | 0.362 ± 0.045

— the supplement of paper PMC10724198
